In article PMC9427789 (2022):

T1: His-SUMO-FGF23 (N-terminal domain of human FGF23, wild type) (human, UniProt Q9GZV9 25-204)
T1 chain: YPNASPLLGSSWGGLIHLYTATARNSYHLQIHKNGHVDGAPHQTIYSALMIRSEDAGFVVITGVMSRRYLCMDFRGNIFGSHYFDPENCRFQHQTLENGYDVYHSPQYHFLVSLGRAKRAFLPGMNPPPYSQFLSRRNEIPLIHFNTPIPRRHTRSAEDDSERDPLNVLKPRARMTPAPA


Target: T1, His-SUMO-FGF23 (N-terminal domain of …)
Test: ELISA

Row | Kd [nM] | Binder
1 | 0.77 | Burosumab (wild type) (antibody, V domains shown) VH: QVQLVQSGAEVKKPGASVKVSCKASGYTFTNHYMHWVRQAPGQGLEWMGIINPISGSTSNAQKFQGRVTMTRDTSTSTVYMELSSLRSEDTAVYYCARDIVDAFDFWGQGTMVTVSS VL: AIQLTQSPSSLSASVGDRVTITCRASQGISSALVWYQQKPGKAPKLLIYDASSLESGVPSRFSGSGSGTDFTLTISSLQPEDFATYYCQQFNDYFTFGPGTKVDIK
2 | 0.21 | Burosumab variant with combined VH:V97A and VL:A32S mutations (antibody, V domains shown) VH: QVQLVQSGAEVKKPGASVKVSCKASGYTFTNHYMHWVRQAPGQGLEWMGIINPISGSTSNAQKFQGRVTMTRDTSTSTVYMELSSLRSEDTAVYYCARDIADAFDFWGQGTMVTVSS VL: AIQLTQSPSSLSASVGDRVTITCRASQGISSSLVWYQQKPGKAPKLLIYDASSLESGVPSRFSGSGSGTDFTLTISSLQPEDFATYYCQQFNDYFTFGPGTKVDIK
3 | 0.48 | Burosumab VL:A32S (antibody, V domains shown) VH: QVQLVQSGAEVKKPGASVKVSCKASGYTFTNHYMHWVRQAPGQGLEWMGIINPISGSTSNAQKFQGRVTMTRDTSTSTVYMELSSLRSEDTAVYYCARDIVDAFDFWGQGTMVTVSS VL: AIQLTQSPSSLSASVGDRVTITCRASQGISSSLVWYQQKPGKAPKLLIYDASSLESGVPSRFSGSGSGTDFTLTISSLQPEDFATYYCQQFNDYFTFGPGTKVDIK
4 | 0.65 | Burosumab VH:V97A (antibody, V domains shown) VH: QVQLVQSGAEVKKPGASVKVSCKASGYTFTNHYMHWVRQAPGQGLEWMGIINPISGSTSNAQKFQGRVTMTRDTSTSTVYMELSSLRSEDTAVYYCARDIADAFDFWGQGTMVTVSS VL: AIQLTQSPSSLSASVGDRVTITCRASQGISSALVWYQQKPGKAPKLLIYDASSLESGVPSRFSGSGSGTDFTLTISSLQPEDFATYYCQQFNDYFTFGPGTKVDIK
